Consider one substance from PMC11965572.

The test has as its target wild-type human ACE2-Fc (human) (UniProt Q9BYF1). The test can be described thus: SEC; protein A-purified wild-type ACE2-Fc fractionated on a Superdex 200 column.

Several values for one entry are separate records, joined by “and”; a condition that tells them apart may be missing. Equal entries are not always repeated.

For the substance “wild-type human ACE2-Fc (from UniProt Q9BYF1 18-728) (Fc fusion)”, the percent as higher oligomers turned out to be 18%; the percent as tetramers worked out at 9%; the percent in a dimeric state is 73%; the stoichiometry N is 2 and 4.
